# Values quoted from earlier work in paper PMC5472698.
# Molecular target: CD21 (Homo sapiens) (UniProt P20023)
# Sequence (P20023 21-1033): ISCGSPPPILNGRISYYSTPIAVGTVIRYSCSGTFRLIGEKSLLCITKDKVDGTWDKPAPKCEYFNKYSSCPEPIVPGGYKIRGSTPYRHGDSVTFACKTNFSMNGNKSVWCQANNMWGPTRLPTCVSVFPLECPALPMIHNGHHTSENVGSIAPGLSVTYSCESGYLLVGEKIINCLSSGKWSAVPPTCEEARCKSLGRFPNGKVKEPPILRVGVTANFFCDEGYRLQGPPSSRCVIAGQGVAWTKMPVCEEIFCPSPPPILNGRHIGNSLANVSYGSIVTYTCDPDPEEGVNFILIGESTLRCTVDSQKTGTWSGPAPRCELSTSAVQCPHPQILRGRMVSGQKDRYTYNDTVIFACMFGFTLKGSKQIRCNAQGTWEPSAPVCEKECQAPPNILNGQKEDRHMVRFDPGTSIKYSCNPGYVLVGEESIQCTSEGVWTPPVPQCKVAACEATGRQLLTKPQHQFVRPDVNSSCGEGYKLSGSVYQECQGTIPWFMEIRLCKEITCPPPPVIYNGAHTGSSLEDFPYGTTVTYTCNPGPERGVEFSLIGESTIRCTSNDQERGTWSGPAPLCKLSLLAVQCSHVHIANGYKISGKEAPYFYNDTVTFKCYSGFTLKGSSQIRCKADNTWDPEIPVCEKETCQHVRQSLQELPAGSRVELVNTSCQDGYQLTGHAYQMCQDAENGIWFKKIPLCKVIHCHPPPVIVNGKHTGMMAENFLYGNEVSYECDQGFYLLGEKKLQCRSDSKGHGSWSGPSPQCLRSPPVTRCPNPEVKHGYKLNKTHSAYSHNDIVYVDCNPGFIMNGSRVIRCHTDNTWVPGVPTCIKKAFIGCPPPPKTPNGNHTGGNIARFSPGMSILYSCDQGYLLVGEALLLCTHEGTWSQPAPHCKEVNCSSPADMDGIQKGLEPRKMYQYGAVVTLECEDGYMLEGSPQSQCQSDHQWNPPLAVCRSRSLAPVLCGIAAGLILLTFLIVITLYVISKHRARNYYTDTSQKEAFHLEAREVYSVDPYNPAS
# Chain of gp350/220 (P03200 whole entry): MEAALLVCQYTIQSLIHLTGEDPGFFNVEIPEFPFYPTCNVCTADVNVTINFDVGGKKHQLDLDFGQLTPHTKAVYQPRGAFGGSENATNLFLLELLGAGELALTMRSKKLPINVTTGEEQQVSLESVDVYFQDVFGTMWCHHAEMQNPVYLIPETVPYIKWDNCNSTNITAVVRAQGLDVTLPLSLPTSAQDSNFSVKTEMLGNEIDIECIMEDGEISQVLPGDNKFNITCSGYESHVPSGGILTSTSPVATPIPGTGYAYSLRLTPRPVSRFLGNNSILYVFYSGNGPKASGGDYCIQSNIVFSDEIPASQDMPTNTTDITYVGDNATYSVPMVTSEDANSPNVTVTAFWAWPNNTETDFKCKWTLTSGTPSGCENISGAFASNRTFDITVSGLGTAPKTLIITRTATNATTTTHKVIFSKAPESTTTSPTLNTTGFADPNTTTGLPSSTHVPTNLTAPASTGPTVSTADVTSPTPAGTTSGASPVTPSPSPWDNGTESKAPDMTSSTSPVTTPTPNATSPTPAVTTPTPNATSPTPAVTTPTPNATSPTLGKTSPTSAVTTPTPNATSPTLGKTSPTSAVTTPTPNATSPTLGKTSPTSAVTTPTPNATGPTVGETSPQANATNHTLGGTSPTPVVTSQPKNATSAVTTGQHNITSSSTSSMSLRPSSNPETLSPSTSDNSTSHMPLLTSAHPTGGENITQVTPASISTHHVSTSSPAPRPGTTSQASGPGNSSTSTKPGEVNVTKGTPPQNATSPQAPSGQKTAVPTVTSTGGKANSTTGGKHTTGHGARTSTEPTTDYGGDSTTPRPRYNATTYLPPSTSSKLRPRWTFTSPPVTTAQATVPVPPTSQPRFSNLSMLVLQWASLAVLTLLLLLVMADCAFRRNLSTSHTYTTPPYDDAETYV
substance,measurement,value
gp350/220 (from UniProt P03200),Kd,12 nM
